# Laboratory results: the RNAGym collection of RNA variant scans (doi:10.1073/pnas.2313332121)
# B1: TPR t1 (parent)
# chain: GACCAAUCUGCCCUCAGAGCUCGAGAACAUCUUCGGAUGCAGAGGAGGCAGGCUUCGGUGGCGCGAUAGCGCCAACGUCCUCAACCUCCAAUGCAUCCCACCACAUGAUGAUGCCUGAAGAGCCUUGGUUUUUUG
# Variants of: B1
# Experiment: polymerase ribozyme fitness, log enrichment relative to wild type (log ratio); higher = more active; in vitro selection for triplet polymerase activity
# Outline: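 Input and output libraries were sequenced on Illumina after a single in vitro selection round, run in triplicate on PCR-built, transcribed mutant libraries of each subunit of a heterodimeric triplet polymerase ribozyme. Selection annealed libraries to a biotinylated primer, the partner subunit and triplets, incubated them frozen at −7 °C, then gel-excised extended constructs for streptavidin-bead capture and RT-PCR. Genotypes with ≥10 input reads and ≥1 read per output were kept. Fitness is the logarithm, taken in base 2, of genotype enrichment divided by wild-type enrichment, using inverse-variance-weighted replicate averages.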
row,Variant,polymerase ribozyme fitness (log ratio)
1,GACCAAUCUGCCCUCAGAGCUCGAGAACAUUUUCGGAUGCAGAGGAGGCAGGUUUCGGUGGCGCGAUAGCGUCAACGUCCUCAACCUCCAAUGCAUCCCACCUCAUGAUGAUGCCUGAAGAGCCUUGGUUUUUUG,-6.73
2,GACCAAUCUGCCCUCAGAGCUCGAGAACAUUUUCGGAUGCAGAGGAGGCAGGGUUCGGUGGCGCGAUAGCGCCAACGUCCUCAACCUCCAAUGCAUCCCACCACAUGAUGAUGCCUGAAGAGCCUUGGUUUUUUG,-3.58
3,GACCAAUCUGCCCUCAGAGCUCGAGAACAUUUUCGGAUGCAGAGGAGGCAGGCUUCGGUGGCGCGAUAGCGGCAACGUCCUCAACCUCCAAUGCAUCCCACCACAUGAUGAUGCCUGAACAGCCUUGGUUUUUUG,-5.23
4,GACCAAUCUGCCCUCAGAGCUCGAGAACAUUUUCGGAUGCAGAGGAGGCAGGCUUCGGUAGCGCGAUAGCACCAACGGCCUCAACCUCCAAUGCAUCCCAUCACAUGAUUAUGCCUGAAGAGCCAUGGUUUUUUG,-6.74
5,GACCAAUCUGCCCUCAGAGCUCGAGAACAUUUUCGGAUGCAGAGGAGGCAGGCUUCGGUAGCGCGAUAGCGCCAACGUCCUCAACCUCCAAUGCAUCCCACCACAUAAUGAUGCCUGAAGAGCCUUGGUUUUUUG,-1.03
6,GACCAAUCUGCCCUCAGAGCUCGAGAACAUUUUCGGAUGCAGAGGAGGCAGGCUUCGGUGGCGCGAUAGCGCCAACGUCCUCAACCUCCAAUGCAUCCCACCACAUGAUGAUGCCUGAAUAGCCUUGGUUUUUUG,-4.56
7,GACCAAUCUGCCCUCAGAGCUCGAGAACAUUUUCGGAUGCAGAGGAGGCAGGCUUCGGUGGCACGAUAGCGCCAACGUCCUCAAUCUCCAAUGCAUCCCACCACAUGAUGAUGCCUGAAGAGCGUUGGUUUUUUG,-4.75
8,GACCAAUCUGCCCUCAGAGCUCGAGAACAUUUUCGGAUCCAGAUGAGGCAGGCUUCGGUGGCGCGAUAGCGCCAACGUCCUCAAGCUCCAAUGCAUCCCACCACAUGAUCAUGCCUGAAGAGCCUUGGUUUUUUG,-6.47
9,GACCAAUCUGCCCUCAGAGCUCGAGAACAUUAUCGGAUGCAGAGGACGCAGGCUUCGGUGCCACGAUAGCGCCAACGUCCUCAACCUCCAAUGCAUCCCACCACAUGAUGAUGCUUGAAGAGCCUUGGUUUUUUG,-7.14
10,GACCAAUCUGCCCUCAGAGCUCGAGAACAUUUUCGGAUGCAGAGGAGGCAGGCUUCGGUGGCGCGAUAGCGCCAACGACCUCAACCUCCGAUGCAUCCCACCACAUGAUGAUGCCUGAAGAGCCUUGGUUUUUUG,-3.97
11,GACCAAUCUGCCCUCAGAGCUCGAGAACAUUUUCGGAUGCAGAUGAGGCAGGCUUCGGUGGCGCGAUAGCGCCAACGUCCUCAACCUCCAAUGCAUCCCACCACAUGAUGAUGCCUGAAGAGCCUUGGUUUUUUG,-5.33
12,GACCAAUCUGCCCUCAGAGCUCGAGAACAUUUUCGGAUGCAGAGGAGACAGGCUUCGGUGGCGCGAUAGCGCCAACGUCCUCAACCUCCAAUGCAUCCCACCACAUGAUGAUGCCUGAAGAGCCUUGGUUUUUUG,-5.2
13,GACCAAUCUGCCCUCAGAGCUCGAGAACAUUUUCGGAUGCAGAGGAGGCAGGCUUCGGUGGCGCGAUAGCGCCAACGUCCUCAACCUCCAAUGCAUCCCACCACAUGAUGGUGCCUGAAGAGCCUUGGUUUUUUG,-5.05
14,GACCAAUCUGCCCUCAGAGCUCGAGAACAUUUUCGGAUGUAGAGGAGGCAGGCUUCGGUGUCGCGAUAGCGCCAACGUCCUCAACCUCCAAUGCAUCCCACCACAUGAUGAUGCCUGAAAAGCCUUGGUUUUUUG,-4.29
15,GACCAAUCUGCCCUCAGAGCUCGAGAACAUUUUCGGAUGCAGAGGAGGCAGGCUUCGGUGGCGCGAUAGCGCCAACGUCCUCAAACUCCAAUGCAUCCCACCACAAGAUGAUGCCUGAAGAGCCUUGGUUUUUUG,-2.67
16,GACCAAUCUGCCCUCAGAGCUCGAGAACAUUUUCGGAUGCAGAGGAGGCAGGCUUCGGUGGCGCGAUAGCGCGAACGUCCUCAACCUCUAAUGCAUCCCACCACAUGAUGAUGCCUGAAGAGCCUUGGUUUUUUG,-5.24
17,GACCAAUCUGCCCUCAGAGCUCGAGAACAUUUUCGGAUGCAGAGGAGGCAGGCUUCGGUGACGCGAUAGCGCCAACGUCCUCAACCUCCAAUGCAUCCCACCACAUGAUGAUGCCUGAAGAGCCUUGGUUUUUUG,-3.81
18,GACCAAUCUGCCCUCAGAGCUCGAGAACAUUUUCGGAUGCAGAGGAGGCAGGCUUCGGUGUCGCGAUAGCGCCAACGUCCUCAACCUCCAAUGCAUCCCACCACAUGAUGAUGCCUGAAGAGCCUUGGUUUUUUG,-4.59
19,GACCAAUCUGCCCUCAGAGCUCGAGAACAUUUUCGUAUGCAGAGGAGGCAGGCUUCGGUGUCGCGAUAGCGCCAACGUCCUAAACCUCCAAUGCAUCCCACCACAUGAUGUUGCCUGAAGAGCCUUGGUUUUUUG,-5.16
20,GACCAAUCUGCCCUCAGAGCUCGAGAACAUUUUCGGAUGCAGAGGAGGCAGGCUUCGGUGGCGCGAUAGCGCGAACGUCCUCAACCUCCAAUGCAUCCCACCACAUGAUGAUGCCUGAAGAGCCUUGGUUUUUUG,-4.48
21,GACCAAUCUGCCCUCAGAGCUCGAGAACAUUUUCGGAUGCAGAGGAGGCAGGCUUCGGUGGCGCGAUAGCGCCAACGUCCUCACCCUCCAAUGCAUACCACCACAUGAUGAUGCCUGAAGUGCCUUGGUUUUUUG,-6.87
